Literature values in publication PMC9458874.

Target: HAB1 (Arabidopsis thaliana) (UniProt Q9CAJ0)
Sequence of UniProt Q9CAJ0 (Q9CAJ0 23-511): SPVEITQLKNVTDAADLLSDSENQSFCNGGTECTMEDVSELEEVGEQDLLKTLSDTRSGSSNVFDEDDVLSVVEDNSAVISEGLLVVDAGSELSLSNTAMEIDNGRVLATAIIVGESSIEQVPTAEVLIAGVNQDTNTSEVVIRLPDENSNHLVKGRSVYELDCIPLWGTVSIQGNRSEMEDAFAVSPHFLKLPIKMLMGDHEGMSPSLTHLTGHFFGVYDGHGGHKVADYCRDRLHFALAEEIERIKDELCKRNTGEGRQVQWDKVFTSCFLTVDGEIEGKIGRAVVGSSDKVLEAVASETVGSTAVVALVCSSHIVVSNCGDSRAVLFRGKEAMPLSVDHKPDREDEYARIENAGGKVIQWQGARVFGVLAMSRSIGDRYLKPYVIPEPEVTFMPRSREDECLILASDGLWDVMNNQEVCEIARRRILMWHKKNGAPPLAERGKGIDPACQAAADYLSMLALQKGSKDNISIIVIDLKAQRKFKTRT

- Kd: 0.03 µM
Substance: PYR1 (from UniProt O49686)
